Experimental data reported in publication PMC11920050 (Nature Communications, 2025).

Molecular target: the molecule itself
Experiment: Western blot of cell lysate under non-denatured or denatured conditions

B1: Flag-EGFP-tagged SPESP1 (equatorial segment protein 1) expressed in CHO-K1 cells (natural protein, mouse, UniProt Q9D5A0 19-399, looked up)
chain: YPTITVLPDEEQNLNHYVHILQNLIMSVPTKEQDLGKKLSSSRTVDSAEPRSLASKVLLTPGLVSAQDVTPESDVLIRPVDETTNSRTRGFTLRRRRTQSTAFWSIRPNNISVVLRTEEPFIEKEPEPELESSRLPTEPEPELEPEPEPVAESRQMSEPEEELVTSTTPNKELTGTSRISSMATQPANTQATRITVTVKTTSTMDVSTDSEDVPQLSGQSEIPSAEDLPGRHSLNTRHEDILKKISNINAEIQQGLLGGNNSPEFKEFIKASREHLKRSLALAAAAEHKLEQMYGSNVFPEGRTSDPDNDMEMIINMLYNSRSKLSDYFNIKRVPSELREKASVVNAELRKILCVDQVEMQSLIKKLLSNNMKILNILNVP
modifications: O-GalNAc glycans (VVA-positive on blot); sites on this construct not stated
Q: B1 was tested. Which “stoichiometry N” value did it give?
A: The value was 2.
